Laboratory results as given in US20210155941A1 (KITE PHARMA EU B V, published 2021).

Target: HLA-A*02:01/HPV16 E7 11-19 (…) peptide-MHC complex on target cells (Human Papilloma virus serotype 16 …)
Assay: cell-based or functional assay

B1: A*02:01/HPV16 E711-19 human TCR (fully human constant regions) expressed on transduced T cells (TCR, V domains shown)
V domain 1: GQNIDQPTEMTATEGAIVQINCTYQTSGFNGLFWYQQHAGEAPTFLSYNVLDGLEEKGRFSSFLSRSKGYSYLLLKELQMKDSASYLCASVDGNNRLAFGKGNQVVVIP
V domain 2: DAGVTQSPTHLIKTRGQQVTLRCSPKSGHDTVSWYQQALGQGPQFIFQYYEEEERQRGNFPDRFSGHQFPNYSSELNVNALLLGDSALYLCASSLGWRGGRYNEQFFGPGTRLTVLE
  EC50 of intracellular IFN-γ (ICCS, flow cytometry), CD4+ T cells td with the TCR vector lacking the miRαβ cassette, peptide-loaded T2 target cells: ~52.4 nM
  EC50 of intracellular IFN-γ (ICCS, flow cytometry), CD4+ T cells td with the pMP71-miRαβ A*02:01/HPV16 E711-19 fHC TCR vector, peptide-loaded T2 target cells: ~22.3 nM
  EC50 of intracellular IFN-γ (ICCS, flow cytometry), CD8+ T cells td with the TCR vector lacking the miRαβ cassette, peptide-loaded T2 target cells: ~6.4 nM
  EC50 of intracellular IFN-γ (ICCS, flow cytometry), CD8+ T cells td with the miRαβ TCR vector (SEQ ID NO: 15), peptide-loaded T2 target cells: ~3.4 nM
